2 molecules from patent publication US20160046705A1 (Amgen, published 2016) can be followed below.

For this test, the target named is T1, human sclerostin (human, UniProt Q9BQB4 24-213, biotin-labeled (site not stated)).
T1 construct: also called biotin-labeled human sclerostin; SOST
T1 sequence: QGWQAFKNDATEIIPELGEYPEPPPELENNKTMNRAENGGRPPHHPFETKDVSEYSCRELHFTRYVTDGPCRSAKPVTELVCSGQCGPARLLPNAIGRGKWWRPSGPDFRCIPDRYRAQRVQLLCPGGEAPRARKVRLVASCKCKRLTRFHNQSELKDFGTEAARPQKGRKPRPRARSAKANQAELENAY
The test can be described thus: competition alpha screen, increasing antibody against his-tagged LRP6 / biotin-labeled human sclerostin.

B1: 27H6 (antibody, V domains shown)
VH: EVQLVESGGGLVQPGGSLRLSCAASGFTFSSYSMNWVRQAPGKGLEWVSYISSSGSSIYYADSVKGRFTISRDNAKNSLYLQMNSLRDEDTAVYYCARERYYGDTPFDYWGQGTLVTVSS
VL: DIVMTQTPLSLPVTPGEPASISCRSSQSLLNSVDGSTNLDWYLQKPGQSPQLLIYTLSYRASGVPDRFSGSGSGTDFTLKISRVEAEDVGVYYCMQRIEFPLTFGGGTKVEIK
notes: also called sclerostin antibody 27H6
For the molecule B1, the binding result is “binds”.

B2: 20C3 (antibody, V domains shown)
VH: QVQLQESGPGLVKPSETLSLTCTVSGGSISSYYWSWIRQPPGKGLEWIGYISDSGSTNYNPSLKSRIPISVDTSKNQFSLKLSSVTAADTAVYYCARWQLAHDAFDIWGQGTMVTVSS
VL: QSALTQPASVSGSPGQSITISCTGTSSDVGGYNYVSWYQQHPGKAPKLMIYEVSYRPSGVSNRFSGSKSGSTASLTISGLQPEDEADYYCSSYAISSTLVFGGGTKMTVL
notes: Parental anti-sclerostin antibody, described as directed against the loop 2 region of sclerostin
For the molecule B2, the binding result is on record as “binds”.
